Test results: paper PMC10442075

Assays:
[1] = target: catalytic subunit of mouse PKA (mouse) (UniProt P05132)
[2] = target: catalytic subunit of mouse PKA (mouse) (UniProt P05132); remark: listed apart in the source

unphosphorylated GSK3β (Glycogen Synthase Kinase 3β), sequence (P49841 whole entry): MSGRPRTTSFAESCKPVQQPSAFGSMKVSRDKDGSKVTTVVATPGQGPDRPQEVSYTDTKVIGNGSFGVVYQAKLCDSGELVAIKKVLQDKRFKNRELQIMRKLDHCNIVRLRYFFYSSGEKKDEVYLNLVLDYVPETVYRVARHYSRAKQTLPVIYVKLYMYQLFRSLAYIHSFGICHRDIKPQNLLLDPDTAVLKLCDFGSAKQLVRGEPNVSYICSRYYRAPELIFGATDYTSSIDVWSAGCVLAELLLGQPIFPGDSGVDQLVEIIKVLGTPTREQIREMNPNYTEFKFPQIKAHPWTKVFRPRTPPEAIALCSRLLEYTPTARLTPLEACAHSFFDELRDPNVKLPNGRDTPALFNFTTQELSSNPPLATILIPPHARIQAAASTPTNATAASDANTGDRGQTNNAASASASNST

fold increase in KM for PKA phosphorylation of GSK3β at Ser9 (20 nM PKA) on addition of 500 nM full-length Axin [1]: 4 fold
fold increase in KM for PKA phosphorylation of GSK3β at Ser9 on addition of the Axin (381-407) peptide [2]: 7 fold
Substance: unphosphorylated GSK3β (Glycogen Synthase Kinase 3β) (from UniProt P49841 1-420) (enzyme)
